Reference: paper PMC10786891, “Massively parallel profiling of RNA-targeting CRISPR-Cas13d”

T1: EsCas13d, nuclease-dead (Eubacterium siraeum, UniProt B0MS50, R295A;H300A;R849A;H854A)
T1 sequence: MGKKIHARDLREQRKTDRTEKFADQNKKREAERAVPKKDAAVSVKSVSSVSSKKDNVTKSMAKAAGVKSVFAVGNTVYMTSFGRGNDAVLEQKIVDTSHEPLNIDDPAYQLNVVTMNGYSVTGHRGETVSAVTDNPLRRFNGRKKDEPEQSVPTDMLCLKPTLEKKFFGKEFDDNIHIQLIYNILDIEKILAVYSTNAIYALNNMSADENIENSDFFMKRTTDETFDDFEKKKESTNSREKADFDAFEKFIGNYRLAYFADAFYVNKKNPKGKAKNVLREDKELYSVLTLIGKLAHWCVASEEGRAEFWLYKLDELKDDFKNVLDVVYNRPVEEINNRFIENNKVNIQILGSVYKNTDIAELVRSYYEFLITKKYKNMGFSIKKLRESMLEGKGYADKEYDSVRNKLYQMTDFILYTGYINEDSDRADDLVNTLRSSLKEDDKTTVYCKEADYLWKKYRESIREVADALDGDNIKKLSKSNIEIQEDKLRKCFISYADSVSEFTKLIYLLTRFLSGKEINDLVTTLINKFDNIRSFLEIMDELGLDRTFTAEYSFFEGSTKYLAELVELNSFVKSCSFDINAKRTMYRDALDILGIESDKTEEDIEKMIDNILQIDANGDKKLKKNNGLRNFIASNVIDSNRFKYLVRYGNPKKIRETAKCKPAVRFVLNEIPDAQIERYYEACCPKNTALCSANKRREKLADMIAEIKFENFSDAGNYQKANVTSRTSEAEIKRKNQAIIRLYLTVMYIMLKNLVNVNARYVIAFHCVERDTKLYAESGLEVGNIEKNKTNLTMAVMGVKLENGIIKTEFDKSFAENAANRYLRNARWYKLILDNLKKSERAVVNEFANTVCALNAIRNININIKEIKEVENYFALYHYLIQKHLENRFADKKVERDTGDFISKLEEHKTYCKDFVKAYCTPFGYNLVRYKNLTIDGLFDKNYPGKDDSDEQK

B1: target 1 insU 3' of 12,insG 3' of 3 (mixed)
RNA 1: CACCCGUGCAAAAAUGCAGGGGUCUAAAACUGAGCGGAUAACCUCUCUAUGG
RNA 2: GGGAAUGGAUCCACAUCUACGAAUUCGUACCAUAGAGAGGUUUAUCCGCUGCACCGAGAUCGGAAGAGCACACGU
B2: target 1 C7U,U19C (mixed)
RNA 1: CACCCGUGCAAAAAUGCAGGGGUCUAAAACUGAGCGGAUAACCUCUCUAUGG
RNA 2: GGGAAUGGAUCCACAUCUACGAAUUCGUACCACAGAGAGGUUAUUCGCUCACCGAGAUCGGAAGAGCACACGU
B3: target 1 insA 3' of 21,insC 3' of 18 (mixed)
RNA 1: CACCCGUGCAAAAAUGCAGGGGUCUAAAACUGAGCGGAUAACCUCUCUAUGG
RNA 2: GGGAAUGGAUCCACAUCUACGAAUUCGUACCAAUACGAGAGGUUAUCCGCUCACCGAGAUCGGAAGAGCACACGU
B4: target 3 insC 3' of 2,insG 3' of 1 (mixed)
RNA 1: CACCCGUGCAAAAUUGCAGGGGUCUAAAACGACCUGAAUAUUUCAGAUCAAA
RNA 2: GGGAAUGGAUCCACAUCUACGAAUUCGUUUUUGAUCUGAAAUAUUCAGGUCCGUGCAGAUCGGAAGAGCACACGU
B5: target 3 insA 3' of 22,insA 3' of 22 (mixed)
RNA 1: CACCCGUGCAAAAUUGCAGGGGUCUAAAACGACCUGAAUAUUUCAGAUCAAA
RNA 2: GGGAAUGGAUCCACAUCUACGAAUUCGUUUAAUUGAUCUGAAAUAUUCAGGUCUGCAGAUCGGAAGAGCACACGU
B6: target 3 insU 3' of 6,insU 3' of 4 (mixed)
RNA 1: CACCCGUGCAAAAUUGCAGGGGUCUAAAACGACCUGAAUAUUUCAGAUCAAA
RNA 2: GGGAAUGGAUCCACAUCUACGAAUUCGUUUUUGAUCUGAAAUAUUCUAGUGUCUGCAGAUCGGAAGAGCACACGU
B7: target 3 U2G,G3U (mixed)
RNA 1: CACCCGUGCAAAAUUGCAGGGGUCUAAAACGACCUGAAUAUUUCAGAUCAAA
RNA 2: GGGAAUGGAUCCACAUCUACGAAUUCGUUUUUGAUCUGAAAUAUUCAGUGCUGCAGAUCGGAAGAGCACACGU
B8: target 3 insC 3' of 4 (mixed)
RNA 1: CACCCGUGCAAAAUUGCAGGGGUCUAAAACGACCUGAAUAUUUCAGAUCAAA
RNA 2: GGGAAUGGAUCCACAUCUACGAAUUCGUUUUUGAUCUGAAAUAUUCAGCGUCUGCAGAUCGGAAGAGCACACGU
B9: target 3 G4A,A5C (mixed)
RNA 1: CACCCGUGCAAAAUUGCAGGGGUCUAAAACGACCUGAAUAUUUCAGAUCAAA
RNA 2: GGGAAUGGAUCCACAUCUACGAAUUCGUUUUUGAUCUGAAAUAUUCCAGUCUGCAGAUCGGAAGAGCACACGU
B10: target 3 G3C,U8G (mixed)
RNA 1: CACCCGUGCAAAAUUGCAGGGGUCUAAAACGACCUGAAUAUUUCAGAUCAAA
RNA 2: GGGAAUGGAUCCACAUCUACGAAUUCGUUUUUGAUCUGAAAUAGUCAGCUCUGCAGAUCGGAAGAGCACACGU
B11: target 3 insG 3' of 6,insU 3' of 3 (mixed)
RNA 1: CACCCGUGCAAAAUUGCAGGGGUCUAAAACGACCUGAAUAUUUCAGAUCAAA
RNA 2: GGGAAUGGAUCCACAUCUACGAAUUCGUUUUUGAUCUGAAAUAUUCGAGGUUCUGCAGAUCGGAAGAGCACACGU
B12: target 3 insU 3' of 22,insC 3' of 5 (mixed)
RNA 1: CACCCGUGCAAAAUUGCAGGGGUCUAAAACGACCUGAAUAUUUCAGAUCAAA
RNA 2: GGGAAUGGAUCCACAUCUACGAAUUCGUUUUUUGAUCUGAAAUAUUCACGGUCUGCAGAUCGGAAGAGCACACGU
B13: target 3 insG 3' of 9,insC 3' of 5 (mixed)
RNA 1: CACCCGUGCAAAAUUGCAGGGGUCUAAAACGACCUGAAUAUUUCAGAUCAAA
RNA 2: GGGAAUGGAUCCACAUCUACGAAUUCGUUUUUGAUCUGAAAUAGUUCACGGUCUGCAGAUCGGAAGAGCACACGU
B14: target 3 U2G,U22G (mixed)
RNA 1: CACCCGUGCAAAAUUGCAGGGGUCUAAAACGACCUGAAUAUUUCAGAUCAAA
RNA 2: GGGAAUGGAUCCACAUCUACGAAUUCGUUGUUGAUCUGAAAUAUUCAGGGCUGCAGAUCGGAAGAGCACACGU
B15: target 3 insU 3' of 22,insA 3' of 7 (mixed)
RNA 1: CACCCGUGCAAAAUUGCAGGGGUCUAAAACGACCUGAAUAUUUCAGAUCAAA
RNA 2: GGGAAUGGAUCCACAUCUACGAAUUCGUUUUUUGAUCUGAAAUAUUACAGGUCUGCAGAUCGGAAGAGCACACGU
B16: target 3 insC 3' of 3,insC 3' of 3 (mixed)
RNA 1: CACCCGUGCAAAAUUGCAGGGGUCUAAAACGACCUGAAUAUUUCAGAUCAAA
RNA 2: GGGAAUGGAUCCACAUCUACGAAUUCGUUUUUGAUCUGAAAUAUUCAGGCCUCUGCAGAUCGGAAGAGCACACGU
B17: target 3 A5G,U7A (mixed)
RNA 1: CACCCGUGCAAAAUUGCAGGGGUCUAAAACGACCUGAAUAUUUCAGAUCAAA
RNA 2: GGGAAUGGAUCCACAUCUACGAAUUCGUUUUUGAUCUGAAAUAUACGGGUCUGCAGAUCGGAAGAGCACACGU
B18: target 3 insA 3' of 8,insG 3' of 2 (mixed)
RNA 1: CACCCGUGCAAAAUUGCAGGGGUCUAAAACGACCUGAAUAUUUCAGAUCAAA
RNA 2: GGGAAUGGAUCCACAUCUACGAAUUCGUUUUUGAUCUGAAAUAUAUCAGGUGCUGCAGAUCGGAAGAGCACACGU
B19: target 3 insC 3' of 12,insA 3' of 2 (mixed)
RNA 1: CACCCGUGCAAAAUUGCAGGGGUCUAAAACGACCUGAAUAUUUCAGAUCAAA
RNA 2: GGGAAUGGAUCCACAUCUACGAAUUCGUUUUUGAUCUGAACAUAUUCAGGUACUGCAGAUCGGAAGAGCACACGU
B20: target 3 G4A,U22C (mixed)
RNA 1: CACCCGUGCAAAAUUGCAGGGGUCUAAAACGACCUGAAUAUUUCAGAUCAAA
RNA 2: GGGAAUGGAUCCACAUCUACGAAUUCGUUCUUGAUCUGAAAUAUUCAAGUCUGCAGAUCGGAAGAGCACACGU
B21: target 3 U2G,A9G (mixed)
RNA 1: CACCCGUGCAAAAUUGCAGGGGUCUAAAACGACCUGAAUAUUUCAGAUCAAA
RNA 2: GGGAAUGGAUCCACAUCUACGAAUUCGUUUUUGAUCUGAAAUGUUCAGGGCUGCAGAUCGGAAGAGCACACGU
B22: target 3 G3A,U7A (mixed)
RNA 1: CACCCGUGCAAAAUUGCAGGGGUCUAAAACGACCUGAAUAUUUCAGAUCAAA
RNA 2: GGGAAUGGAUCCACAUCUACGAAUUCGUUUUUGAUCUGAAAUAUACAGAUCUGCAGAUCGGAAGAGCACACGU
B23: target 3 insU 3' of 6,insG 3' of 5 (mixed)
RNA 1: CACCCGUGCAAAAUUGCAGGGGUCUAAAACGACCUGAAUAUUUCAGAUCAAA
RNA 2: GGGAAUGGAUCCACAUCUACGAAUUCGUUUUUGAUCUGAAAUAUUCUAGGGUCUGCAGAUCGGAAGAGCACACGU
B24: target 3 insA 3' of 10,insU 3' of 4 (mixed)
RNA 1: CACCCGUGCAAAAUUGCAGGGGUCUAAAACGACCUGAAUAUUUCAGAUCAAA
RNA 2: GGGAAUGGAUCCACAUCUACGAAUUCGUUUUUGAUCUGAAAUAAUUCAGUGUCUGCAGAUCGGAAGAGCACACGU
B25: target 3 G4A,A12U (mixed)
RNA 1: CACCCGUGCAAAAUUGCAGGGGUCUAAAACGACCUGAAUAUUUCAGAUCAAA
RNA 2: GGGAAUGGAUCCACAUCUACGAAUUCGUUUUUGAUCUGAUAUAUUCAAGUCUGCAGAUCGGAAGAGCACACGU
B26: target 3 U8G,U22A (mixed)
RNA 1: CACCCGUGCAAAAUUGCAGGGGUCUAAAACGACCUGAAUAUUUCAGAUCAAA
RNA 2: GGGAAUGGAUCCACAUCUACGAAUUCGUUAUUGAUCUGAAAUAGUCAGGUCUGCAGAUCGGAAGAGCACACGU
B27: target 3 insG 3' of 6,insA 3' of 2 (mixed)
RNA 1: CACCCGUGCAAAAUUGCAGGGGUCUAAAACGACCUGAAUAUUUCAGAUCAAA
RNA 2: GGGAAUGGAUCCACAUCUACGAAUUCGUUUUUGAUCUGAAAUAUUCGAGGUACUGCAGAUCGGAAGAGCACACGU
B28: target 3 insU 3' of 22,insU 3' of 4 (mixed)
RNA 1: CACCCGUGCAAAAUUGCAGGGGUCUAAAACGACCUGAAUAUUUCAGAUCAAA
RNA 2: GGGAAUGGAUCCACAUCUACGAAUUCGUUUUUUGAUCUGAAAUAUUCAGUGUCUGCAGAUCGGAAGAGCACACGU

target: T1, EsCas13d, nuclease-dead; experiment: crRNA (strand 1, pre-loaded); Mg2+; 40 mM Tris-HCl pH 7.5, 150 mM NaCl, 6 mM MgCl2, 1 mM DTT, 0.1% Tween-20, 0.2 mg/ml BSA; 25 C; 10 min per concentration, then washed; settings: tags: His6-TwinStrep-SUMO cleaved; N-terminal SNAP kept (SNAP-Surface 488); label: 3' end held by stalled T7 RNA polymerase

First: B1
Second: B2
The Kd of the first is 3.7-fold lower: 6.3 ± 0.4 nM for the first, 23.5 ± 1.7 nM for the second. The first binds more tightly here.

B3 and B4 are within error of each other in Kd: 47 ± 7 nM for the first, 52 ± 12.5 nM for the second.

Compared with B5, B6 is 2.8-fold lower in Kd: 19.4 ± 2.45 nM for the first, 6.95 ± 0.7 nM for the second. The second binds more tightly here.

Compared with B7, B8 is 2.1-fold higher in Kd: 9.2 ± 0.8 nM for the first, 19 ± 2.45 nM for the second.

B9 and B10 are within error of each other in Kd: 99 ± 21 nM for the first, 88 ± 16.5 nM for the second.

Compared with B11, B12 is 3.5-fold higher in Kd: 6.95 ± 0.6 nM for the first, 24.1 ± 2.9 nM for the second.

B13 and B14 are within error of each other in Kd: 80.5 ± 12.5 nM for the first, 61.5 ± 14.5 nM for the second.

Going from B15 to B16, the Kd falls from 68.5 ± 19 nM to 39 ± 4 nM (1.8-fold). The second binds more tightly here.

B17 and B18 are within error of each other in Kd: 37 ± 5.5 nM for the first, 36.5 ± 8.5 nM for the second.

First: B19
Second: B20
The Kd of the first is 14-fold higher: about 102 nM for the first, 7.05 ± 1 nM for the second.

Going from B21 to B22, the Kd rises from 36 ± 5 nM to 72.5 ± 14.5 nM (2-fold).

Compared with B23, B24 is 5.4-fold higher in Kd: 10.9 ± 0.9 nM for the first, 59 ± 13 nM for the second.

B25 and B26 are the same in Kd: 72.5 ± 11 nM for the first, 72.5 ± 13.5 nM for the second.

First: B27
Second: B28
The Kd of the first is 3.2-fold higher: 15.6 ± 1.85 nM for the first, 4.9 ± 0.95 nM for the second. The second binds more tightly here.
